Experimental data published in patent US20030036699A1, “Methods and systems which use annexin for bioprofiling body lumen” (IMETRx, Inc., priority 2001, published 2003).
Where “and” joins values, the source holds several entries; their conditions need not be identical. Equal entries are not always repeated.

System: injured iliac vessel (arterial lesions)
Assay: Tracer uptake by autoradiography of harvested aorta/iliac in balloon-injured, cholesterol-fed rabbits
Format: in vivo, rabbit
Details: for Figure of Merit (FOM): FOM=3(AUR)(PUR)(PBR); for Peak Uptake Ratio (PUR): peak lesion uptake vs uninjured zone, autoradiograph after single IV tracer dose; for Average Uptake Ratio (AUR): ratio of uptake in injured vs uninjured iliac vessel, autoradiograph about 2.5 h after single IV tracer dose
Experimental: Twenty-one adult male rabbits (weighing 3-4 kg at the time of tracer administration) were each were fed a high cholesterol, high fat diet for one week. Following one week of feeding, the rabbits were heparinized, anesthetized with ketamine HCI (25 mg/kg, IM) and medetomidine (0.5 mg/kg, IM), and underwent a left carotid arteriotomy. A 3-4F Fogarty catheter was advanced through the arteriotomy under fluoroscopic guidance into the right iliac artery. The Fogarty balloon was inflated with 0.4-0.75 ml of contrast media (to assist with localization by fluoroscopy) and withdrawn to the level of diaphragm. The balloon was deflated, the catheter returned to the distal iliac under fluoroscopic guidance, and the process repeated. There were six repetitions of the procedure. The neck incision was closed, and the animals received Baytril (5 mg IM) for 3 days following surgery to minimize infection. The animals were allowed to recover for four additional weeks while the high fat/high cholesterol diet was continued. The rabbits were divided into seven groups of […] each. On the day of study, a blood sample was drawn to measure lipids (cholesterol), and two groups of three animals received a single tracer dose intravenously via a marginal ear vein. The first group of three rabbits received annexin V-^99mTc.
Two hours after the radiopharmaceutical was administered, the animals were injected with Evans blue to identify the areas of injury an re-endothelialized aorta and iliac vessel. Thirty minutes later, the animals were anesthetized with sodium pentothal (35 mg/kg, IV) and, a thoracotomy and a midline laporotomy incision were performed. The left ventricle was identified, a trocar placed in the chamber, and a cannula placed in the abdominal aorta. The rabbit was partially exsanguinated, followed by infusion of 100 mL lactated Ringer's solution, and subsequently perfused with 0.4% paraformaldehyde (PFA) for about 5 min at about 100 mmHg pressure.
Following euthanasia, the aorta was harvested, photographed (SONY Mavica) and autoradiographed (Molecular Dynamics). An aliquot of blood and an aliquot of the injected dose were included on the plate to permit quantification. The autoradiographs were compared to the Evans Blue stained specimen to determine where the tracer had localized with reference to the injury. A ratio between uptake in the injured and uninjured iliac vessel was determined (average uptake ratio) using analysis option of ‘Image Quest^1.’ Additional ratios were created using the average counts in regions of interest placed over the area with peak uptake on the autoradiograph with each agent, and a ratio of peak uptake to the activity in an aliquot blood were determined.
To simplify the process of integrating the information, a Figure of Merit was calculated, using the formula: […]

albumin-^125I [reference compound]
Figure of Merit (FOM): 14
activity in injured iliac vessel relative to uninjured site (animals 1 and 3): 3 fold
Peak Uptake Ratio (PUR): 5.1 and 5.2
Average Uptake Ratio (AUR): 3.0

B1: annexin V-^99mTc (protein, UniProt P08758 2-320, looked up)
Annexin A5: AQVLRGTVTDFPGFDERADAETLRKAMKGLGTDEESILTLLTSRSNAQRQEISAAFKTLFGRDLLDDLKSELTGKFEKLIVALMKPSRLYDAYELKHALKGAGTNEKVLTEIIASRTPEELRAIKQVYEEEYGSSLEDDVVGDTSGYYQRMLVVLLQANRDPDAGIDEAQVEQDAQALFQAGELKWGTDEEKFITIFGTRSVSHLRKVFDKYMTISGFQIEETIDRETSGNLEQLLLAVVKSIRSIPAYLAETLYYAMKGAGTDDHTLIRVMVSRSEIDLFNIRKEFRKNFATSLYSMIKGDTSGDYKKALLLLCGEDD
modifications: technetium-99m label
notes: Annexin V, a human protein (36 kD) of 319 amino acids, radiolabeled with technetium-99m as tracer
Figure of Merit (FOM): 1701
localization of tracer on the autoradiograph relative to lesion sites (autoradiograph compared with Evans Blue stained specimen): striking correlation between lesion sites and localization of annexin
Peak to Blood Ratio (PBR) (peak lesion uptake vs activity in an aliquot of blood): 4.5
Peak Uptake Ratio (PUR): 15
Average Uptake Ratio (AUR): 8.4
